Source: patent US20130059292A1 (APTAMER SCIENCES, published 2013)

Molecular target: T1, epidermal growth factor receptor (EGFR) (human, UniProt P00533 25-1210)
T1 construct: Endogenous protein in A431 cell lysate; also called EGF receptor
Assay: Co-AP with EGFR aptamer-magnetic agarose beads from EGF-stimulated A431 cell lysate, Western blot

binding result: binds
B1: PDK1 (enzyme, human, UniProt O15530 1-556, looked up)
chain: MARTTSQLYDAVPIQSSVVLCSCPSPSMVRTQTESSTPPGIPGGSRQGPAMDGTAAEPRPGAGSLQHAQPPPQPRKKRPEDFKFGKILGEGSFSTVVLARELATSREYAIKILEKRHIIKENKVPYVTRERDVMSRLDHPFFVKLYFTFQDDEKLYFGLSYAKNGELLKYIRKIGSFDETCTRFYTAEIVSALEYLHGKGIIHRDLKPENILLNEDMHIQITDFGTAKVLSPESKQARANSFVGTAQYVSPELLTEKSACKSSDLWALGCIIYQLVAGLPPFRAGNEYLIFQKIIKLEYDFPEKFFPKARDLVEKLLVLDATKRLGCEEMEGYGPLKAHPFFESVTWENLHQQTPPKLTAYLPAMSEDDEDCYGNYDNLLSQFGCMQVSSSSSSHSLSASDTGLPQRSGSNIEQYIHDLDSNSFELDLQFSEDEKRLLLEKQAGGNPWHQFVENNLILKMGPVDKRKGLFARRRQLLLTEGPHLYYVDPVNKVLKGEIPWSQELRPEAKNFKTFFVHTPNRTYYLMDPSGNAHKWCRKIQEVWRQRYQSHPDAAVQ
notes: also called phosphoinositide dependent kinase 1; PDPK1
